Experimental data taken from paper PMC7596504, “Molecular mechanism of the MORC4 ATPase activation” (Nature Communications, 2020).
Entries after “also recorded” stand apart in the source; their conditions may differ.

Experiments:
[1] = system: HEK293T cells; experiment: MORC4 localization and nuclear bodies (confocal microscopy); format: cell-based; conditions: 127 cells quantified
Procedure: WT mCherry-MORC4, mCherry-MORC4 E56A, mCherry-MORC4 W435A, mCherry-MORC4 E56A/W435A, mCherry-MORC4 K460A/R462A/R463A, or mCherry control plasmid were transfected into 2 million 293T-HEK cells seeded on 25 mm circular coverslips (Carolina Biological Supply Item#: 633057) in 10-cm-diameter tissue culture dish by Lipofectamine 3000 (Life Technology, L3000-075) following the manufacturer’s instructions. Two days after transfection, cells were stained with Hoechst […] for 30 min and imaged live on a ZeissAxiovert 200 M inverted microscope fitted with a ×40 oil objective. Images were acquired with Slidebook 6 software and exported for analysis in Image J.
mCherry foci sizes were calculated using ImageJ image processing program (version 1.51) using the Analyze Particle tool. mCherry particle sizes were collected for MORC4 WT and MORC4 W435A transfected cells. Data were plotted with R (version 3.4.1) using ggplot2 (version 3.2.1). Cell size and mCherry foci count per cell were calculated using CellProfile cell image analysis software (version 3.1.5) to identify nuclei and mCherry foci, relate mCherry foci to nuclei containing them and measure the size of nuclei and number mCherry foci contained. Data were plotted with R (version 3.4.1) using ggplot2 (version 3.2.1).

[2] = system: 601 DNA; experiment: EMSA with 601 DNA; format: binding; conditions: 147 bp 601 DNA 5 pmol, pH 7.5, 150 mM NaCl, 0.5 h on ice, listed as E56A mutant of MORC4
Procedure: EMSA experiments were performed essentially as described. In brief, increasing amounts of WT or mutant CW or ATPaseCW cassette of MORC4 were incubated with 147 bp 601 DNA (5 pmol) or 50 ng of O’RangeRuler 5 bp ladder (Thermo Scientific) in a DNA-binding buffer containing 20 mM Tris-HCl (pH 7.5), 150 mM NaCl, 2.5 mM MgCl2, and 2 mM DTT for 0.5 h on ice. The reaction mixtures were loaded on 5% native polyacrylamide gels, and electrophoresis was performed in 0.2× Tris-borate-EDTA (TBE) buffer at 100 V for 1.2 h on ice. Gels were stained with SYBR Gold (Invitrogen).

[3] = system: MORC4; experiment: ATPase activity assay (EnzChek Phosphate Assay Kit); format: biochemical, human; conditions: listed as E56A mutant of MORC4
Procedure: To determine whether MORC4 is catalytically active, we produced the ATPase domain of human MORC4 and examined its ability to hydrolyze ATP in enzymatic assays (Fig. 1a–c). Following incubation of the ATPase domain with ATP, 2-amino-6-mercapto-7-methylpurine ribonucleoside and nucleoside phosphorylase, the release of inorganic phosphate generated by the hydrolysis of ATP to ADP was monitored by measuring an increase in absorbance at 360 nm.
The ATPase assays were performed using the EnzChek Phosphate Assay Kit (Invitrogen, item # E6646). The reactions were carried out on 1.0 µM of MORC4 His-ATPase or ATPaseCW (WT and mutants), in the presence and absence of 1 µM 601 DNA or 50 µM of unmodified H3 or H3K4me3 peptide (aa 1–12 of H3) in a buffer containing 50 mM Tris-HCl (pH 7.5), 150 mM NaCl, 1 mM MgCl2, 0.1 mM sodium azide, 200 µM MESG, and 1 U of PNP. In assay with the nucleosome, 0.5 µM of MORC4 ATPaseCW and 0.5 µM NCP167 (Activemotif) were used. The reaction was started by adding 2 mM ATP to the mixture at room temperature, and the release of inorganic phosphate was monitored by measuring the absorbance at 360 nm on a Nanodrop 2000c spectrophotometer (Thermo Scientific). In the presence of inorganic phosphate, produced by the hydrolysis of ATP to ADP, MESG is enzymatically converted to ribose 1-phosphate and […] by PNP, resulting in a shift in the wavelength absorbance from 330 nm for MESG to 360 nm for the product. The rate of ATP self-hydrolysis was measured in parallel. Error was calculated as the S.D. of at least three separate experiments (two in Fig. 4j).

[4] = system: HEK293T cells; experiment: Cell cycle analysis by flow cytometry; format: cell-based; conditions: 48-h overexpression of mCherry-tagged protein, EdU/PI; average of three independent experiments; control 34.5%
Procedure: For DNA content analysis, 10^6 cells previously transfected with mCherry MORC4 constructs and labeled with 25 µM Ethynyl deoxyUridine (EdU) for 1 h in 100 µL were washed with PBS (NaCl 137 mM, KCl 2.7 mM, Na2HPO4 10 mM, KH2PO4 1.8 mM) and fixed in ice cold 70% ethanol overnight. Fixed cells were washed and resuspended in PBS containing 0.05% NP40 and incubated at room temperature for 30 min. Cells were again washed with PBS. Cells were resuspended in Alexa Fluor 647 click staining solution (100 mM Tris pH 7.6, 4 mM CuSO4, 3 µM AF647 azide, 100 mM Sodium Ascorbate) for 1 h. Following staining, cells were washed with PBS and then stained for total DNA content using 10 μg/mL propidium iodide (PI) and 0.2 mg/ml RNase A for 60 min before analysis on a FACScan instrument. Data were analyzed using FlowJo (Version 10) with cells gated to remove doublets. EdU vs PI plots were gated in quadrants to identify G1, early S, late S and G2/M cells. S phase fractions were summed for total S phase population. […]

B1: MORC4 E56A: mCherry-tagged full-length MORC4 E56A mutant, catalytically impaired ATPase domain (protein, UniProt Q8TE76 1-937, looked up, variant E56A)
chain: MLLYRGAPAGPGAPGCGLARPGGGPQAFGIRLSTMSPRYLQSNSSSHTRPFSAIAALLDNAVDPDVSARTVFIDVEEVKNKSCLTFTDDGCGMTPHKLHRMLSFGFTDKVIKKSQCPIGVFGNGFKSGSMRLGKDALVFTKNGGTLTVGLLSQTYLECVQAQAVIVPIVPFNQQNKKMIITEDSLPSLEAILNYSIFNRENDLLAQFDAIPGKKGTRVLIWNIRRNKNGKSELDFDTDQYDILVSDFDTEEKMTGGVTSELPETEYSLRAFCGILYMKPRMKIFLRQKKVTTQMIAKSLANVEYDTYKPTFTNKQVRITFGFSCKNSNQFGIMMYHNNRLIKSFEKVGCQVKPTRGEGVGVIGVIECNFLKPAYNKQDFEYTKEYRLTINALAQKLNAYWKEKTSQDNFETSTVARPIPKVPDQTWVQCDECLKWRKLPGKIDPSMLPARWFCYYNSHPKYRRCSVPEEQELTDEDLCLSKAKKQEQTVEEKKKMPMENENHQVFSNPPKILTVQEMAGLNNKTIGYEGIHSPSVLPSGGEESRSPSLQLKPLDSSVLQFSSKYKWILGEEPVEKRRRLQNEMTTPSLDYSMPAPYRRVEAPVAYPEGENSHDKSSSERSTPPYLFPEYPEASKNTGQNREVSILYPGAKDQRQGSLLPEELEDQMPRLVAEESNRGSTTINKEEVNKGPFVAVVGVAKGVRDSGAPIQLIPFNREELAERRKAVESWNPVPYSVASAAIPAAAIGEKARGYEESEGHNTPKLKNQRELEELKRTTEKLERVLAERNLFQQKVEELEQERNHWQSEFKKVQHELVIYSTQEAEGLYWSKKHMGYRQAEFQILKAELERTKEEKQELKEKLKETETHLEMLQKAQVSYRTPEGDDLERALAKLTRLRIHVSYLLTSVLPHLELREIGYDSEQVDGILYTVLEANHILD
modifications: full-length mCherry tag
In the case of B1, the “number of NBs compared to wild type” value [1] is reported as “significant increase in number of mCherry foci per cell”, the “size of NBs compared to wild type” value [1] is reported as “significant decrease in mCherry foci size” and the “number of NBs compared to wild type” value ([1]; listed as E56A mutant of MORC4) is reported as “notable increase in the number of NBs”. The “size of NBs compared to wild type” value ([1]; listed as E56A mutant of MORC4) was “decrease in the size of NBs”, the “binding to 601 DNA” value [2] was “retains its DNA-binding activity; also recorded: binds DNA as WT MORC4” and the “catalytic (ATPase) activity of the protein” value [3] was “catalytically impaired ATPase domain; also recorded: catalytically inactive”. The “percent of cells in S phase” value [4] was 36.3%.
